This passage reports Kd results from PMC9491720 (Science Advances, 2022).

The assay addresses Flag-tagged PKM2 (pyruvate kinase M2) (human, UniProt P14618-1 1-531, labeled with fluorescence (in the MST assay only)). Description: MST.

One may read the Kd as a measure of binding affinity in units of concentration. The low end stands for tighter binding, the high end for weaker binding.

Flag-tagged PKM2 (pyruvate kinase M2), sequence (P14618 whole entry): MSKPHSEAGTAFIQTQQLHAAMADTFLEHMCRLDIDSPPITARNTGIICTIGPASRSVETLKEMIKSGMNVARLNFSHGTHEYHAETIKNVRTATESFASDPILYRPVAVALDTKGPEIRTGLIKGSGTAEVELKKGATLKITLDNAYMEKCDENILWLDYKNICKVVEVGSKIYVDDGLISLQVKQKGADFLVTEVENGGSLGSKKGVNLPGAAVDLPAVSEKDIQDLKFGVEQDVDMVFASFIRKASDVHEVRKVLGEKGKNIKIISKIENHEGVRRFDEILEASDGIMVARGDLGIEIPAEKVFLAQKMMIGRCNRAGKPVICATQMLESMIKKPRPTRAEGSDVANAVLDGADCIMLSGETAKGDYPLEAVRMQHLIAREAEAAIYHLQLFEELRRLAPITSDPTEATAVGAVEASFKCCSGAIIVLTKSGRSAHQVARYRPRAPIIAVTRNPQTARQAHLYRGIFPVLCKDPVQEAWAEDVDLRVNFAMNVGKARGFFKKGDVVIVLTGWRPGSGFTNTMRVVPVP

B1: recombinant His-tagged Smad7 (natural protein)
chain: MFRTKRSALVRRLWRSRAPGGEDEEEGAGGGGGGGELRGEGATDSRAHGAGGGGPGRAGCCLGKAVRGAKGHHHPHPPAAGAGAAGGAEADLKALTHSVLKKLKERQLELLLQAVESRGGTRTACLLLPGRLDCRLGPGAPAGAQPAQPPSSYSLPLLLCKVFRWPDLRHSSEVKRLCCCESYGKINPELVCCNPHHLSRLCELESPPPPYSRYPMDFLKPTADCPDAVPSSAETGGTNYLAPGGLSDSQLLLEPGDRSHWCVVAYWEEKTRVGRLYCVQEPSLDIFYDLPQGNGFCLGQLNSDNKSQLVQKVRSKIGCGIQLTREVDGVWVYNRSSYPIFIKSATLDNPDSRTLLVHKVFPGFSIKAFDYEKAYSLQRPNDHEFMQQPWTGFTVQISFVKGWGQCYTRQFISSCPCWLEVIFNSR
Take B1: the Kd came to 346 nM.
